Laboratory results: US20090136526A1 (Seagen, published 2009)
Values belong to the molecule of their own block, whether it stands above or below them.

Columns and labels:
[1] = biological target: T1, CD19 on CD19-positive tumor cell lines (human, UniProt P15391 20-556); assay: cell-based or functional assay
T1 sequence (looked up): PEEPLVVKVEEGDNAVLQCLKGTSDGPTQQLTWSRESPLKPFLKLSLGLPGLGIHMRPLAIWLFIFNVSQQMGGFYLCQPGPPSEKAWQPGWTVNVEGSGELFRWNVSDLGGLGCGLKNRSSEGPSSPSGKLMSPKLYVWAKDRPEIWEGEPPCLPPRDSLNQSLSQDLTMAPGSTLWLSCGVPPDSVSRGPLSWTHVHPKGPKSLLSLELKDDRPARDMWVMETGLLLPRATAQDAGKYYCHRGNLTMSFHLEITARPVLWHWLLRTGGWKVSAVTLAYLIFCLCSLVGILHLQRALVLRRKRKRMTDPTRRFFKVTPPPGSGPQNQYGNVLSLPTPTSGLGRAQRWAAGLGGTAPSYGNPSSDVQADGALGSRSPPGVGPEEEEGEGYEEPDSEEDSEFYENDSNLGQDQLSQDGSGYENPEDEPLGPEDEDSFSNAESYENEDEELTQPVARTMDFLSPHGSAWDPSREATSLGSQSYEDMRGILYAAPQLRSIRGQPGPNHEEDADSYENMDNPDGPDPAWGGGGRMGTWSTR

[2] = biological target: CD19 on CD19-positive tumor cell lines (human) (UniProt P15391); assay: cell-based or functional assay

Molecule: B-C3 (antibody)
IC50 (ng/mL) of anti-CD19 antibody linked with 2°-ADC, cell viability (resazurin, 96 h), CA46 cells [1]: 17 ng/mL
IC50 (ng/mL) of anti-CD19 antibody linked with 2°-ADC, cell viability (resazurin, 96 h), HS Sultan cells [1]: 234 ng/mL
IC50 (ng/mL) of anti-CD19 antibody linked with 2°-ADC, cell viability (resazurin, 96 h), MC 116 cells [1]: 195 ng/mL
IC50 (ng/mL) of anti-CD19 antibody linked with 2°-ADC, cell viability (resazurin, 96 h), Ramos cells [1]: 13 ng/mL
IC50 (ng/mL) of anti-CD19 antibody linked with 2°-ADC, cell viability (resazurin, 96 h), Toledo cells [1]: 359 ng/mL

Molecule: HIB19 (antibody)
IC50 (ng/mL) of anti-CD19 antibody linked with 2°-ADC, cell viability (resazurin, 96 h), CA46 cells [1]: 1 ng/mL
IC50 (ng/mL) of anti-CD19 antibody linked with 2°-ADC, cell viability (resazurin, 96 h), HS Sultan cells [1]: 97 ng/mL
IC50 (ng/mL) of anti-CD19 antibody linked with 2°-ADC, cell viability (resazurin, 96 h), HT cells [1]: 1000 ng/mL
IC50 (ng/mL) of anti-CD19 antibody linked with 2°-ADC, cell viability (resazurin, 96 h), MC 116 cells [1]: 188 ng/mL
IC50 (ng/mL) of anti-CD19 antibody linked with 2°-ADC, cell viability (resazurin, 96 h), Ramos cells [1]: 1 ng/mL
IC50 (ng/mL) of anti-CD19 antibody linked with 2°-ADC, cell viability (resazurin, 96 h), Toledo cells [1]: 1000 ng/mL

Molecule: LT19 (antibody)
IC50 (ng/mL) of anti-CD19 antibody linked with 2°-ADC, cell viability (resazurin, 96 h), CA46 cells [1]: 4 ng/mL
IC50 (ng/mL) of anti-CD19 antibody linked with 2°-ADC, cell viability (resazurin, 96 h), HS Sultan cells [1]: 112 ng/mL
IC50 (ng/mL) of anti-CD19 antibody linked with 2°-ADC, cell viability (resazurin, 96 h), HT cells [1]: 111 ng/mL
IC50 (ng/mL) of anti-CD19 antibody linked with 2°-ADC, cell viability (resazurin, 96 h), MC 116 cells [1]: 192 ng/mL
IC50 (ng/mL) of anti-CD19 antibody linked with 2°-ADC, cell viability (resazurin, 96 h), Ramos cells [1]: 1 ng/mL
IC50 (ng/mL) of anti-CD19 antibody linked with 2°-ADC, cell viability (resazurin, 96 h), Toledo cells [1]: 584 ng/mL

internalization kinetics by FACS, CD21 low Ramos cells [1]: 50%
Molecule: hBU12 (antibody)

internalization kinetics by FACS, CD21 low Ramos cells [1]: 50%
Molecule: hBU12-vcMMAE (antibody)

B1: SJ25-C1 (antibody, from another filing, V domains shown)
VH: EVKLQQSGAELVRPGSSVKISCKASGYAFSSYWMNWVKQRPGQGLEWIGQIYPGDGDTNYNGKFKGQATLTADKSSSTAYMQLSGLTSEDSAVYFCARKTISSVVDFYFDYWGQGTTVTVSS
VL: DIELTQSPKFMSTSVGDRVSVTCKASQNVGTNVAWYQQKPGQSPKPLIYSATYRNSGVPDRFTGSGSGTDFTLTITNVQSKDLADYFCQQYNRYPYTSGGGTKLEI
IC50 (ng/mL) of anti-CD19 antibody linked with 2°-ADC, cell viability (resazurin, 96 h), CA46 cells [2]: 4 ng/mL
IC50 (ng/mL) of anti-CD19 antibody linked with 2°-ADC, cell viability (resazurin, 96 h), HS Sultan cells [2]: 150 ng/mL
IC50 (ng/mL) of anti-CD19 antibody linked with 2°-ADC, cell viability (resazurin, 96 h), MC 116 cells [2]: 200 ng/mL
IC50 (ng/mL) of anti-CD19 antibody linked with 2°-ADC, cell viability (resazurin, 96 h), Ramos cells [2]: 3 ng/mL
IC50 (ng/mL) of anti-CD19 antibody linked with 2°-ADC, cell viability (resazurin, 96 h), Toledo cells [2]: 512 ng/mL

B2: cBU12 (antibody, V domains shown)
VH: QVTLKESGPGILQPSQTLSLTCSFSGFSLSTSGMGVGWIRQPSGKGLEWLAHIWWDDDKRYNPALKSRLTISKDTSSNQVFLKIASVDTADTAAYYCARMELWSYYFDYWGQGTTLTVSS
VL: ENVLTQSPAIMSASPGEKVTMTCSASSSVSYMHWYQQKSSTSPKLWIYDTSKLASGVPGRFSGSGSGNSHFLTISSMEAEDVATYYCFQGSVYPFTFGSGTKLEIKR
IC50 (ng/mL) of anti-CD19 antibody linked with 2°-ADC, cell viability (resazurin, 96 h), CA46 cells [1]: 7 ng/mL
IC50 (ng/mL) of anti-CD19 antibody linked with 2°-ADC, cell viability (resazurin, 96 h), HS Sultan cells [1]: 100 ng/mL
IC50 (ng/mL) of anti-CD19 antibody linked with 2°-ADC, cell viability (resazurin, 96 h), HT cells [1]: 238 ng/mL
IC50 (ng/mL) of anti-CD19 antibody linked with 2°-ADC, cell viability (resazurin, 96 h), MC 116 cells [1]: 186 ng/mL
IC50 (ng/mL) of anti-CD19 antibody linked with 2°-ADC, cell viability (resazurin, 96 h), Ramos cells [1]: 5 ng/mL
IC50 (ng/mL) of anti-CD19 antibody linked with 2°-ADC, cell viability (resazurin, 96 h), Toledo cells [1]: ~1000 ng/mL
